# Source: patent publication US20200164083A1 (priority 2016, published 2020)
# Read-outs that look alike come from different tables or passages of the source.
# Key:
# [1] = pH 9.4
# [2] = mouse, in vivo
# Procedure: B. The small amounts of microspheres needed in the mouse required a diluent to allow accurate dosing. […] This diluent served to keep the microspheres in a homogeneous suspension prior to and during administration and allowed dosing of convenient volumes. […] Syringes (0.5 mL U-100 insulin syringe with fixed 29 g×½″ needle, BD) were filled with the suspended microspheres under aseptic conditions. The needle assembly of each syringe was purged of air and weighed prior to and following dosing to determine the average mass of slurry delivered to each mouse.
# Serum was prepared and frozen at −80° C. until analysis.
# (§1) Serum samples were treated with 3 vol of ACN and centrifuged. The supernatant was dried, reconstituted and applied to a HPLC MS/MS system. The sample was eluted by a water/ACN gradient containing 0.1% formic acid. […] HPLC-MS/MS analyses were carried out on a Sciex 5500 QTrap® mass spectrometer coupled with a Shimadzu HPLC system. The Shimadzu HPLC system consisted of two LC-30AD HPLC pumps and a SIL-30AC autosampler with a 100-μL loop installed. […] The mass spectrometer was operated in positive electrospray ionization mode and the resolution setting used was the unit for both Q1 and Q3. […] Peak-area integrations were performed using Analyst software (version 1.5.2) from Sciex.
# (§2) C vs. t curves (text) were analyzed using GraphPad Prism by non-linear regression of eq X (text) with weighting by 1/SD2; since ka>>k1 we modeled the single exponential phase of the terminal half-life using data points later than the first few days.
# [3] = rat, in vivo
# Procedure: The content of each syringe was administered SC in the flank of six cannulated male Sprague Dawley rats (average weight 270 g).
# as §1, §2
# [4] = tested on: Zucker diabetic fatty rats; assay: Chronic glucoregulatory effects in diabetic ZDF rats; type: in vivo; conditions: single s.c. dose
# Procedure: A total of 55 male Zucker diabetic fatty rats (ZDF-Lepr^fa/Crl) 6 weeks of age, and 180-200 gram (Charles River, USA) were single-housed and blood glucose and body weight were monitored bi-weekly for 2-4 weeks. Based on morning-fed blood glucose, outliers were excluded and 40 diabetic rats (average weight 340 g, blood glucose 9.7 to 22.5 mM, average 16.2 mM) were stratified into 4 groups of n=10. […]
# Body-weights were monitored daily from day −3 throughout the study. Food and water intake were monitored on day −3 and daily for the first 11 days after the first dose then bi-weekly for the rest of the study period. Blood sampling was performed for pharmacokinetic studies 2 days after the first dose and then once weekly. HbA1c was measured day −3, and days 26 and 55 before OGTT, and the gastric emptying test was performed on day 26. For the OGTT, rats were semi-fasted overnight (60%) then PO glucose (2 g/kg in 10 mL) was administered at t=0. Blood glucose and insulin were measured at t=−60, −15, 0, 15, 30, 60 and 120 minutes after the glucose challenge. Gastric emptying was measured by administration of acetaminophen (100 mg/kg) with the OGTT on day 26, and blood levels were measured at 15, 30, 60 and 120 min.
# [5] = rat, in vivo, sc
# Procedure: Each syringe contained 0.45 or 0.98 μmol peptide at 1.9 μmol peptide g^−1 slurry. The syringes were weighed prior to and after dosing to verify the mass delivered to each rat. Blood samples (300 μL) were drawn and the serum was frozen at −80° C. until analysis.
# Frozen serum samples were thawed on ice and diluted between 5 and 20-fold in the provided rat serum. […] Data replicates were averaged and fitted to appropriate pharmacokinetic models.
substance,measurement,setting,value
hydrogel-[N28Q]exenatide microspheres R^1=CN: PEG hydrogel microspheres coupled with Nα-[1-cyano-7-azido-2-heptyloxycarbonyl]-[N28Q]exenatide,half-life of first-order release of free peptide,[1],0.688 days
same,AUCinf,[2],800 ± 323 nM-hr
same,Cmax,[2],0.81 nM
same,"Dose adjusted: Cmax, 0",[2],0.18 nM/(μmol/kg)
same,k × 10^4 ± SE,[2],9.5 ± 1.0 h^−1
same,t1/2,[2],30.4 days
same,AUCinf,[3],448 ± 91 nM-hr
same,Cmax,[3],0.36 nM
same,"Dose adjusted: Cmax, 0",[3],0.17 nM/(μmol/kg)
same,k × 10^4 ± SE,[3],7.8 ± 1.3 h^−1
same,t1/2,[3],36.8 days
same,"t1/2,β",[3]; sc,36.7 days
same,control of blood glucose,[4],effective at controlling blood glucose for at least one month
same,t1/2,[5],31.7 days
